# According to patent publication US6858210B1, “Therapeutic and diagnostic domain 1 β2GPI polypeptides and methods of using same” (La Jolla Pharmaceutical Co., priority 1998, dated 2005):
# Where two headings read alike, the source gives them in different places.
# Legend:
# [1] = tested on: affinity purified β2GPI-dependent antiphospholipid antibody; assay: Direct binding ELISA, nickel chelate-coated wells charged with recombinant β2GPI proteins (no cardiolipin); parameters: species or system human; details: O.D. at 550 nm
# Protocol: (§1) Nickel Chelate-coated microwell plates (NCP 010 00 Xenopore Corp. 374 Midland Ave. Saddle Brook, N.J. USA) were coated with 50 μl of serial dilutions of the various recombinant β2GPI, in PBS, at room temperature for 2 hours. The plates were washed three times with PBS and blocked with 75 μl of a 1% gelatin (Sigma #G-2500) in PBS for one hour room temperature. […] The plates were washed three times with PBS, 50 μl of alkaline phosphatase conjugated anti-immunoglobulin (anti-human IgG, gamma chain specific, Zymed #62-8422) or anti-rabbit IgG (Zymed #62-6122) diluted appropriately in 1% gelatin was added and incubated at 37° C. for one hour. The plates were washed three times with PBS, 50 μl of alkaline phosphatase PPMP chromogenic substrate solution was added and incubated for 30 minutes at room temperature. The optical density, at 550 nm, was determined by reading the plates in a microplate autoreader (Bio-Teck Instruments, model EL311).
# (§2) Seven to nine different recombinant β2GPI mutant proteins were examined to determine if they could support the direct binding of affinity purified β2GPI-dependent antiphospholipid antibody preparations in the absence of anionic phospholipid. All recombinant mutant β2GPI were assayed with affinity purified β2GPI-dependent antiphospholipid antibody preparations from 11 different patients. Each mutant recombinant β2GPI protein was tested, in a dose dependent fashion and GST-6his was included as a negative control. The recombinant mutant β2GPI proteins were bound to nickel coated microtiter plates via their 6-his tail. All recombinant mutant β2GPI proteins tested bound rabbit anti-β2GPI showing that they were assessable by antibody (FIG. 5).
# [2] = tested on: affinity purified β2GPI-dependent antiphospholipid antibody; assay: Competitive inhibition ELISA: recombinant β2GPI proteins compete for antibody binding to coated full length recombinant β2GPI; parameters: species or system human; details: for IC50: read-out: 50% (concentration to give 50% inhibition)
# Protocol: Microtiter plates (MaxiSorp™, Nalge Nunc International, Denmark) were coated with 50 μl of full length recombinant β2GPI at 10 μg/ml in 0.1 M bicarbonate, pH 9.5, incubated overnight at 4° C., washed three times with 0.15 M PBS, pH 7.2, and blocked for one hour at room temperature with 75 μl of 2% Non-fat Dried Milk (Carnation, 2% NFDM). Test inhibitors were diluted in 2% NFDM and 25 μl of each dilution was added to coated wells. Affinity purified β2GPI-dependent antiphospholipid antibody was diluted in 2% NFDM and 25 μl, of a constant concentration, was added to the wells, including a group of wells that had no inhibitor, which acted as the positive controls. The contents of the wells were mixed and the plates were incubated at 37° C. for one hour. The plates were washed three times with PBS, 50 μl of alkaline phosphatase conjugated anti-human IgG, gamma chain specific, (Zymed #62-8422) diluted appropriately in 2% NFDM was added and incubated at 37° C. for one hour. The plates were washed three times with PBS, 50 μl of alkaline phosphatase PPMP chromogenic substrate solution was added and incubated for 30 minutes, at room temperature. The Optical Density, at 550 nm, was determined by reading the plates in a microplate autoreader (Bio-Teck Instruments, model EL3 11). The percent inhibition was determined by dividing the OD550 obtained in the presence of inhibitor by the mean OD550 obtained from the wells without inhibitor and then multiplying by 100 (more particularly, [mean A550 obtained from control wells without inhibitor less A550 of background] minus [A550 obtained in presence of inhibitor less A550 of background] divided by [mean A550 obtained from control wells without inhibitor less A550 of background] times 100).
# Seven to nine different recombinant β2GPI mutant proteins were used to determine the antigenic specificity of affinity purified β2GPI-dependent antiphospholipid antibody preparations from 13 different patients. Each mutant recombinant β2GPI protein was tested, in a dose dependent fashion, for its ability to inhibit affinity purified β2GPI-dependent antiphospholipid antibody from binding to full length recombinant β2GPI. The following values were also observed for domain 1 only recombinant protein (1 - - - -; see Table 2 for designations): […]
# rabbit anti-β2GPI = assay: Direct binding ELISA, nickel chelate-coated wells, rabbit antibody; details: O.D. at 550 nm
# Protocol: as §1, §2
# [3] = tested on: antiphospholipid antibody in plasma from patient 6501; assay: Competitive antibody binding ELISA with patient plasma on β2GPI coated plates; parameters: species or system human; details: plasma patient 6501, 1:200
# Protocol: Nunc Maxisorp microplates (Nalge Nunc International, Denmark) were coated with 100 μL/well of β2GPI at 2.5 μg/mL in PBS, incubated for 2 hours at room temperature, and blocked for 2 hours at room temperature with 250 μl/well of 2% nonfat milk with […] (Sigma Chemical Co.). […] After incubation for one hour at room temperature the plates were washed 5× with TBS. To each well was added 100 μL of alkaline phosphatase-conjugated anti-human IgG, gamma chain specific (Zymed) diluted 1:1000 in 2% nonfat milk with 0.4% Tween-80. After one hour at room temperature the plates were washed 5× with TBS. To each well was added 100 μl PPMP chromogenic substrate solution for color development at room temperature. Optical absorbance per well was determined at A550nm in a commercial microplate reader (Bio-Tek Instruments EL3 11).
Molecule,Maximum O.D. ([1]; Ab 6203),Maximum O.D. ([1]; Ab 6501),Maximum O.D. ([1]; Ab 6626),Maximum O.D. ([1]; Ab 6632),Maximum O.D. ([1]; Ab 6641),Maximum O.D. ([1]; Ab 6652),Maximum O.D. ([1]; Ab 6701),Maximum O.D. ([1]; Ab 7008),Maximum O.D. ([1]; Ab 7015),Maximum O.D. ([1]; Ab 7101),Max (maximum inhibition observed at concentrations tested) ([2]; Ab 6203),IC50 ([2]; Ab 6203),Max (maximum inhibition observed at concentrations tested) ([2]; Ab 6501),IC50 ([2]; Ab 6501),Max (maximum inhibition observed at concentrations tested) ([2]; Ab 6509),IC50 ([2]; Ab 6509),Max (maximum inhibition observed at concentrations tested) ([2]; Ab 6626),IC50 ([2]; Ab 6626),Max (maximum inhibition observed at concentrations tested) ([2]; Ab 6632),IC50 ([2]; Ab 6632),further results
"---45: recombinant β2GPI deletion mutant with domains 4, 5 (protein) GREVKCPFPSRPDNGFVNYPAKPTLYYKDKATFGCHDGYSLDGPEEIECTKLGNWSAMPSCKASCKLPVKKATVVYQGERVKIQEKFKNGMLHGDKVSFFCKNKEKKCSYTEDAQCIDGTIEVPKCFKEHSSLAFWKTDASDVKPCGHHHHHH",0.142,0.086,0.086,0.000,0.112,0.013,0.000,0.030,0.167,0.167,10%,> 40 µM,15%,> 40 µM,20%,> 5 µM,15%,> 40 µM,20%,> 40 µM,Max (maximum inhibition observed at concentrations tested) ([2]; Ab 6641): 20%; IC50 ([2]; Ab 6641): > 5 µM; Max (maximum inhibition observed at concentrations tested) ([2]; Ab 6644): 10%; IC50 ([2]; Ab 6644): > 40 µM; Max (maximum inhibition observed at concentrations tested) ([2]; Ab 6652): 20%; IC50 ([2]; Ab 6652): > 5 µM; Max (maximum inhibition observed at concentrations tested) ([2]; Ab 6701): 15%; IC50 ([2]; Ab 6701): > 5 µM; Max (maximum inhibition observed at concentrations tested) ([2]; Ab 7008): 20%; IC50 ([2]; Ab 7008): > 40 µM; Max (maximum inhibition observed at concentrations tested) ([2]; Ab 7015): 10%; IC50 ([2]; Ab 7015): > 40 µM; Max (maximum inhibition observed at concentrations tested) ([2]; Ab 7101): 5%; IC50 ([2]; Ab 7101): > 40 µM; Max (maximum inhibition observed at concentrations tested) ([2]; Ab 7104): 5%; IC50 ([2]; Ab 7104): > 40 µM; Maximum O.D. (rabbit anti-β2GPI): 1.941
"Reduced and alkylated domain 1: β2GPI domain 1 polypeptide that had been reduced and alkylated, negative control (protein, also: reduced and alkylated cysteines, alkylating agent not given here, β2GPI domain 1 polypeptide that had been reduced and alkylated, negative control) GRTCPKPDDLPFSTVVPLKTFYEPGEEITYSCKPGYVSRGGMRKFICPLTGLWPINTLKCTPRV",,,,,,,,,,,,,,,,,,,,,competition for antiphospholipid antibody binding to β2GPI [3]: no such competition
"--345: recombinant β2GPI deletion mutant with domains 3, 4, 5 (protein) GRIICPPPSIPTFATLRVYKPSAGNNSLYRDTAVFECLPQHAMFGNDTITCTTHGNWTKLPECREVKCPFPSRPDNGFVNYPAKPTLYYKDKATFGCHDGYSLDGPEEIECTKLGNWSAMPSCKASCKLPVKKATVVYQGERVKIQEKFKNGMLHGDKVSFFCKNKEKKCSYTEDAQCIDGTIEVPKCFKEHSSLAFWKTDASDVKPCGHHHHHH",0.072,0.030,0.022,0.004,0.019,0.016,0.002,0.018,0.042,0.042,10%,> 50 µM,15%,> 50 µM,20%,> 15 µM,20%,> 50 µM,20%,> 50 µM,Maximum O.D. ([1]; Ab 6644): 0.048; Max (maximum inhibition observed at concentrations tested) ([2]; Ab 6641): 10%; IC50 ([2]; Ab 6641): > 15 µM; Max (maximum inhibition observed at concentrations tested) ([2]; Ab 6644): 10%; IC50 ([2]; Ab 6644): > 50 µM; Max (maximum inhibition observed at concentrations tested) ([2]; Ab 6652): 30%; IC50 ([2]; Ab 6652): > 15 µM; Max (maximum inhibition observed at concentrations tested) ([2]; Ab 6701): 20%; IC50 ([2]; Ab 6701): > 15 µM; Max (maximum inhibition observed at concentrations tested) ([2]; Ab 7008): 20%; IC50 ([2]; Ab 7008): > 50 µM; Max (maximum inhibition observed at concentrations tested) ([2]; Ab 7015): 10%; IC50 ([2]; Ab 7015): > 50 µM; Max (maximum inhibition observed at concentrations tested) ([2]; Ab 7101): 5%; IC50 ([2]; Ab 7101): > 50 µM; Max (maximum inhibition observed at concentrations tested) ([2]; Ab 7104): 20%; IC50 ([2]; Ab 7104): > 50 µM; Maximum O.D. (rabbit anti-β2GPI): 1.993
